B1: glmS ribozyme (parent)
chain: AUAAAAGCGCCAGAACUACAGAAAUGUAGUUGACGAGGAGGAGGUUUAUCGAAUUUUCGGCGGAUGCCUCCAAA

Common to all, as to conditions: with glucosamine-6-phosphate
Variants of B1 are the subject of series [1]. The experiment in a line: kcat; higher = faster cleavage; RNA array. In outline:
(§1)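 In situ transcription by E. coli RNA polymerase produced barcoded ribozyme variants on sequenced MiSeq chips, and a hybridised Cy3 probe tracked them at 37 °C. Glucosamine-6-phosphate was flowed in at 40 μM to 10 mM in HEPES/KCl/Mg(OAc)2 buffer. kcat and KM were taken from weighted Michaelis–Menten fits of kobs values from exponential decay fits.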

The variants in series [2] derive from B1. The experiment in a line: self-cleavage kobs at 40 uM GlcN6P; higher = faster cleavage; RNA array. The gist of the method: as §1
In series [3] the parent is B1. The experiment in a line: self-cleavage kobs at 160 uM GlcN6P; higher = faster cleavage; RNA array. The gist of the method:
as §1

Series [4] covers variants of B1. The experiment in a line: self-cleavage kobs at 640 uM GlcN6P; higher = faster cleavage; RNA array. In outline: as §1
The variants in series [5] derive from B1. As to the kind of experiment: self-cleavage kobs at 2500 uM GlcN6P; higher = faster cleavage; RNA array. The gist of the method:
as §1

Series [6] covers variants of B1. The experiment in a line: self-cleavage kobs at 10000 uM GlcN6P; higher = faster cleavage; RNA array. In outline: as §1
Variants of B1 are the subject of series [7]. As to the kind of experiment: KM; higher = weaker cofactor use; RNA array. In outline: as §1

± gives the standard error. For some of these results: Variants at the floor of the assay were thinned out.

AUAAAAGCGCCAGAACUACAGAAAUGUAGUUGACGAGGAGGAGGUAUAUCGAAUUUUCGGCGGAUCCCUCCAAA [U46A G66C]: the kcat with glucosamine-6-phosphate [1] amounted to 0.00211 ± 0.0008 s⁻¹. The “self-cleavage kobs at 40 uM GlcN6P” value in the series with glucosamine-6-phosphate [2] was 5.47e-05 ± 1.7e-05 s⁻¹. In addition, in the series with glucosamine-6-phosphate [3], the “self-cleavage kobs at 160 uM GlcN6P” value was found to be 0.000161 ± 4.3e-05 s⁻¹. For the same variant, the “self-cleavage kobs at 640 uM GlcN6P” value with glucosamine-6-phosphate [4] worked out at 0.00053 ± 0.00011 s⁻¹. In addition, in the series with glucosamine-6-phosphate [5], the “self-cleavage kobs at 2500 uM GlcN6P” value turned out to be 0.000776 ± 0.00018 s⁻¹. For the same variant, the “self-cleavage kobs at 10000 uM GlcN6P” value with glucosamine-6-phosphate [6] was found to be 0.00237 ± 0.00038 s⁻¹.

In the case of AUAAAAGCGCCACAACUACAGAAAUGUAGUUGACGAGGAGGAGGUUUAUCGAAUUUUCGGCGGAUGCCGCCAAA [G13C U69G], the kcat in the series with glucosamine-6-phosphate [1] amounted to 5.45e-05 ± 1.1e-05 s⁻¹. Further, the “self-cleavage kobs at 40 uM GlcN6P” value with glucosamine-6-phosphate [2] stood at 3.61e-05 ± 1.3e-05 s⁻¹. For the same variant, the “self-cleavage kobs at 160 uM GlcN6P” value with glucosamine-6-phosphate [3] was determined as 4.33e-05 ± 1.6e-05 s⁻¹. Moreover, the “self-cleavage kobs at 640 uM GlcN6P” value in the series with glucosamine-6-phosphate [4] came to 9.44e-05 ± 2.5e-05 s⁻¹. Moreover, the “self-cleavage kobs at 2500 uM GlcN6P” value with glucosamine-6-phosphate [5] is 4.52e-05 ± 1.2e-05 s⁻¹.

For AUAAAAGCGCCAUAACUACAGAAAUGUAGUUGACGAGGAGGAGGUUCAUCGAAUUUUCGGCGGAUGCCUCCAAA [G13U U47C], in the series with glucosamine-6-phosphate [1], the turnover number (kcat) was determined as 7.04e-05 ± 3.2e-06 s⁻¹. For the same variant, the KM with glucosamine-6-phosphate [7] amounted to 1030 ± 150 µM. Further, in the series with glucosamine-6-phosphate [4], the “self-cleavage kobs at 640 uM GlcN6P” value was determined as 2.85e-05 ± 1.2e-05 s⁻¹. Moreover, in the series with glucosamine-6-phosphate [5], the “self-cleavage kobs at 2500 uM GlcN6P” value came to 4.74e-05 ± 1.2e-05 s⁻¹. The “self-cleavage kobs at 10000 uM GlcN6P” value with glucosamine-6-phosphate [6] is 6.59e-05 ± 1.6e-05 s⁻¹.

Consider AUAAAAGCGCCAGAACUACAGAAAUGUAGUUGACGAGGAGGAGGCGUAUCGAAUUUUCGGCGGAUGCCUCCAAA [U45C U46G], for which the kcat in the series with glucosamine-6-phosphate [1] is 0.00122 ± 0.00043 s⁻¹. The KM with glucosamine-6-phosphate [7] came to 2110 ± 1100 µM. The “self-cleavage kobs at 160 uM GlcN6P” value in the series with glucosamine-6-phosphate [3] turned out to be 7.78e-05 ± 1.5e-05 s⁻¹. Moreover, the “self-cleavage kobs at 640 uM GlcN6P” value in the series with glucosamine-6-phosphate [4] was determined as 0.000322 ± 8.8e-05 s⁻¹. The “self-cleavage kobs at 2500 uM GlcN6P” value with glucosamine-6-phosphate [5] was determined as 0.000911 ± 0.00015 s⁻¹. In addition, the “self-cleavage kobs at 10000 uM GlcN6P” value with glucosamine-6-phosphate [6] was 0.000685 ± 0.00025 s⁻¹.

For AUAAAAGCGCCAGAACUACAGAAAUGUAGUUGACGAGGAGGAGGUUUAUCGAAUGUUGGGCGGAUGCCUCCAAA [U55G C58G], in the series with glucosamine-6-phosphate [1], the kcat came out at 0.000161 ± 1.7e-05 s⁻¹. Further, the KM with glucosamine-6-phosphate [7] is 6790 ± 1400 µM. In the series with glucosamine-6-phosphate [5], the “self-cleavage kobs at 2500 uM GlcN6P” value was determined as 4.5e-05 ± 8.6e-06 s⁻¹. In the series with glucosamine-6-phosphate [6], the “self-cleavage kobs at 10000 uM GlcN6P” value is 9.57e-05 ± 1.1e-05 s⁻¹.

As to AUAAAAGCGCCAGUACUACAGAAAUGUAGGUGACGAGGAGGAGGUUUAUCGAAUUUUCGGCGGAUGCCUCCAAA [A14U U30G], in the series with glucosamine-6-phosphate [1], the kcat stood at 0.00494 ± 0.00089 s⁻¹. Also, the KM with glucosamine-6-phosphate [7] amounted to 2220 ± 540 µM. Also, the “self-cleavage kobs at 40 uM GlcN6P” value with glucosamine-6-phosphate [2] is 0.000104 ± 8.8e-06 s⁻¹. Moreover, the “self-cleavage kobs at 160 uM GlcN6P” value in the series with glucosamine-6-phosphate [3] turned out to be 0.000282 ± 3.6e-05 s⁻¹. Besides, the “self-cleavage kobs at 640 uM GlcN6P” value with glucosamine-6-phosphate [4] worked out at 0.000998 ± 0.0001 s⁻¹. For the same variant, the “self-cleavage kobs at 2500 uM GlcN6P” value with glucosamine-6-phosphate [5] worked out at 0.0033 ± 0.00052 s⁻¹. Moreover, the “self-cleavage kobs at 10000 uM GlcN6P” value in the series with glucosamine-6-phosphate [6] is 0.00404 ± 0.00036 s⁻¹.

Take AUAAAAGCGCCAGAACUACAGAAAUGUAGUUGACGACGAGGAGGUUUAUCGAAUUUUCGGCGGAUGCCUCUAAA [G37C C71U]: in the series with glucosamine-6-phosphate [1], the kcat came to 3.39e-05 ± 1.3e-06 s⁻¹. In addition, the KM with glucosamine-6-phosphate [7] was determined as 662 ± 140 µM. Also, the “self-cleavage kobs at 2500 uM GlcN6P” value in the series with glucosamine-6-phosphate [5] worked out at 2.55e-05 ± 9.5e-06 s⁻¹. Moreover, the “self-cleavage kobs at 10000 uM GlcN6P” value in the series with glucosamine-6-phosphate [6] is 3.23e-05 ± 8.2e-06 s⁻¹.

These data come from the supplement of paper PMC7125110.
